Test: soluble on expression in E. coli; label from the status in PepcDB or PDB records

Row | Sequence | soluble on expression in E. coli
1 | MTTNYVLRKPWRWLTISKDMMINEQIRAREVRLVGANGDQLGIKSRNDALDLAANLNLDLVLVAPNAKPPVCRIMDYGKFRFEQQKKEKEQRKNQKVISMKEVRLSPTIDEHDFNTKLRNAIKFLEKGDKVKASIRFKGRAITHKEIGQRVLDRFSEACAEVSTIESKPKMEGRSMFLVLAPKNDK | not soluble
2 | MGSDKIHHHHHHMHFIMMKLFRVVKRGYYISYAILDNSTIIRLDEDPIKALMRYSENKEVLGDRVTGIDYQSLLKSFQINDIRITKPIDPPEVWGSGISYEMARERYSEENVAKILGKTIYEKVYDAVRPEIFFKATPNRCVGHGEAIAVRSDSEWTLPEPELAVVLDSNGKILGYTIMDDVSARDLEAENPLYLPQSKIYAGCCAFGPVIVTSDEIKNPYSLDITLKIVREGRVFFEGSVNTNKMRRKIEEQIQYLIRDNPIPDGTILTTGTAIVPGRDKGLKDEDIVEITISNIGTLITPVKKRRKIT | not soluble
3 | MCLAVPGKVIEVNGPVAVVDFGGVKREVRLDLMPDTKPGDWVIVHTGFAIEKLDEKKAMEILEAWAEVEKAMEGF | soluble
4 | SGANISGGSPEFDRNDDVYSRKLRLVDLPENCVALIMTRLDPPEICRLARLNRMSRRASSADFIWESKLPANYRVIAHKVFDEITLTKLIKKDLYAKLSQPNLFDDGTKELWIDKNTGRLCLSISSKALRITGIDDRRYWSHIPTDESRFQSAAYVQQIWWFEVGGEFEIQFPSGTYSLFFRIQLGKTSKRLGRRICNSEHIHGWDIKPVRFQLATSDNQQAVSLCYLNNNPGSWSHYHVGDFKVTNPDVSTGIKFSMTQIDCTHTKGGLCIDSVLILPKECAKEVIGSQ | soluble
5 | MQPERYVWAKYFWEQARDANGVARRHLGDTTRNNGAPTVGSPFVALCGIDVTPHPEDTDTARGTCFAPACMVCTTLFARATGWSAGAIGNLIQTFQWTNNDVRQLGLALGMTASQTRRQIEQWTQEADKVNKARHTAKQQKAAGR | not soluble
6 | MSELNKEMTLLPPPELVQYVGGDFKKVGKEFLKHFIQIGALKSNEKVLDVGCGVGRMAVPLMNYLNDDGAYYGFDLFKDGITWCQNNISTMRNNFHFEHVDIYNQFYNPEGKEDASQYRFPYEDGTFDFIFLTSVFTHLLPKELEHYVSEIVRVLKKDGRCFITFFLINPESSYYLNAGQSTLGFYHRIENCYVVNKDIPNFAVAYPETDICNLLNKYGLEIINKPHYGLWCGRHEYTSYQDIVLTKKSFLEHHHHHH | soluble
7 | MRGLRKEALEELMKLLNMKDFPYRIEGIDISHLQGKYTVASLVVFEDGFPKKGDYRRYKIEQDHPDDYESIRTVVKRRYSKHPLPNLLFVDGGIGQVNAAIEALKEIGKDCPVVGLAKKEETVVFENREIHLPHDHPVLRLLVQIRDETHRFAVSYHRKRREKESLRSVLDNVPGIGPIRKKKLIEHFGSLENIRSASLEEIARVIGSTEIARRVLDILG | soluble
8 | MPVVNIPIKILGQNQSHSRSNSSSSVDNDRNQPPQQPPQPQPQQQSQQQYQQAPNVNTNMHHSNGFSPNFPSRSPIPDFPSFSSGFPNDSEWSSNFPSFPNFPSGFSNGSSNFPDFPRFGRDGGLSPNPPMQGYRRSPTPTSTQSPTSTLRRNSQQNQAPPQYSQQQPQQAQQRQTTPPSTKASSRPPSRTREPKEPEVPERPAVIPLPYEKKEKPLEKKGSRDSGKGDENLEENIAKITIGKNNCELCPEQETDGDPSPLTSPITEGKPKRGKKLQRNQSVVDFNAKTIVTLDKIELQVEQLRKKAAELEMEKEQILRSLGEISVHNCMFKLEECDREEIEAITDRLTKRTKTVQVVVETPRNEEQKKALEDATLMIDEVGEMMHSNIEKAKLCLQTYMNACSYEETAGATCQNFLKIIIQCAADDQKRIKRRLENLMSQIENAERTKADLMDDQSE | not soluble
9 | MRIALIIFPIHASHGCILQTYALYRTLRKLGHDVSIIDRQWDKLSLKNQLVYAVKSLIISIKRKCIRPLTIEGTRKIIMSELQTFVDKHLSNRKIYFRTPRYEELPHYDAFIVGSDQTWRPKYVSDILYYYLCFVPAEEKVKRIAYAPSFGTEEWEYSEQQTLQCRELVSRFDAIAVREDSGAKLCGKYLGINVEHVLDPTMLLNKEDYLSETGIMPSEQNRLSYYLLDNSKSKMQIVEEICKELHLTVQRINTETENHKAGIKERVAPSIEKWIEGFVNSKFIVADSFHATVFAIIFNKHFITIANKDRGIARFESLLKMFGLENRLITDIRQVTPELVHESIDWGKVNQTMWAKQSSSLDYLKFNLGNI | not soluble
10 | MSLKGVSYTSEQKTRIVLEMLKEEETLAQIASRYQVTSQTLNSWKRQFLANASLAFEPAKALQEYKDQIQSKEQEIEELQKQLGKSVAEKEWLAKKLEGLDLSNKKALVESKPETISIARQCELLGISRSAYYYKPISLSRANLQIMHAIGEIATDNAEYGYRFIHQQLLEDGYRIGKERVLKYMRVMNLRALYPKKRKHTSIHNLEYKRYPYLLSQYHNSKKQVVVDRPGEVWSGDITYIRMNGGFMYLCAIIDWHSKAILAYKISNTMDASLAVDTLKEALQTHPAPRIFNSDQGSQYTSEEHTRLLEEHQIAISMNGKGRSIDNIAIERFFRTLKHSSIYINDYRTIKELKEGIKNYIHKYNFKRFHSSIEYRKPMNVYLEAQTVAEGHHHHHH | not soluble
11 | HMDIRPRLRIGQINLGGAEDATRELPSIARDLGLDIVLVQEQYSMVGFLAQCGAHPKAGVYIRNRVLPCAVLHHLSSTHITVVHIGGWDLYMVSAYFQYSDPIDPYLHRLGNILDRLRGARVVICADTNAHSPLWHSLPRHYVGRGQEVADRRAKMEDFIGARRLVVHNADGHLPTFSTANGESYVDVTLSTRGVRVSEWRVTNESSSDHRLIVFGVGGGTTGERDEDEEARSDLRPGEP | soluble
12 | MHLDVLDLHNFYYRTPLGRVAQRAVRDQVQKLWPDAQGQTVAGFGFSVPLLRPYLEQARRLIALMPGPQGVMPWPVGMGNVSVLCEEGAWPLSTGMVDKLVMLHGLETSEHPSEVLSEAWRVLGPGGRALFIVPSRSGLWARRDGTPFGFGRPYSLNQLEAQLKRHDFTPERALAALFAPPLHQRFWLKTADFWETGGRRFAPWLVGGVLIVEASKQVYAPTRTGLKAAVSKPLRVLEGIPQPLPAPAGRTSDGSCGCPGGC | not soluble
13 | GHMGKPDISAKDLRNIMYDHLPGFGTAFHQLVQVICKLGKDSNSLDIIHAEFQASLAEGDSPQCALIQITKRVPIFQDAAPPVIHIRSRGDIPRACQKSLRPVPPSPKIDRGWVCVFQLQDGKTLGLAI | soluble
14 | MSVDSLPTLFQWARDNLLKEEALAISALEELPIHLFPEMFKVAFTDRHTKVLIAMVSAWPFPCLPVGTLIEDPHLETLKAVLDGLNVLVTGKVHSSRCKLRVLDLRRNVHHDFWSIQTGSHEDNCPAQIVAQKQPVETCPNPRREIPFMVVTDFELTQESFDEWTIYLMQWIQERKSSIHLCCRKLNSCASPVSNVIEIFKLVDLNCILELQLSQWWPEVLEELDPYLEGMNNLHTLMLEGLKPFRFTACEEDQEDEWQSTLPSLLSNFGSLQNLYLNDIYLLEDSLDKWLGCLKTPLKTLSITDCPRLLQSDFECLPNCPNICKLKHLNLNALFLSDVGYEIPGLILEKVTSTLQILELERCGMTDPHFKALMPALSKCSQLLKVSFCHNDISLRVLKTLLCHTAKLSQLTQELYPAPQECYEDYKILKDRFKKLCPELLNILKAKRQPKKVSFTTQTCLKCLHSCHYYYNLEATDCLCQCICQ | not soluble
15 | TTNLFGFGIDAESRLDLNSKDMTPEKKAKAESETKRLQEFIRYANLDEGTETVFQNIIEDQEKTGNGYIEVLRDGKGQPVELVHCDSQYIRVCKKTEPVEVGYTIMEKGEPVNILRNKRFRKFVQIIDEKKVWFKEYGDPRIMDSTNGNYVEESELESKEFRDATEIIHFKIGTSAYGVPRWIGNVVSLYGARKAEELNLLYFVNGRHVPAAVVVQGGLLDEDAYNNLEEYMKGVSGTENAYQFLVLEVQGEEITNANGDKNLSDVKVEIKSLADMIQKDAMFLEYDATHRKKMRSSFRLPPIYTGEADEYNKATAETARKTTEEQVFQPMRRKLARKINGAFLEALDISEAKLVLKSPDLTDIASISNAIYPFISAASVIPNDLRPMLE | not soluble
16 | MGSDKIHHHHHHMALKDYAIEKEKVKKFLQEFYYENELGKKQFKYGTQLVHLAHREQVALYVDLDDIAEDDPELVDSICENAKRYSRLFGDVVQELLPEYKEKEVVNKDVLDVYIEHRLMMEQRSRDPGAVRNPQNQYPSELMRRFELYFRGPSSSKPRVIREVRADSVGKLLTVRGIVTRVSEVKPRMVVATYTCDQCGAETYQPIQSPTFMPLIMCPSQECQTNRSGGRLYLQTRGSKFVKFQEMKIQEHSDQVPVGNIPRSITVVLEGENTRIAQPGDHVSVTGIFLPVLRTGFQQMAQGLLSETYLEAHWIVKMTKSDDDVSGAGELSSEELKQIAEEDFYEKLAASIAPEIYGHEDVKKALLLLLVGGVDQSPQGMKIRGNIHICLMGDPGVAKSQLLSYIDRLAPRSQYTTGRGSSGVGLTAAVLRDSVSGELTLEGGALVLADQGVCCIDEFDKMAEADRTAIHEVMEQQTISIAKAGILTTLNARCSILAAANPAYGRYNPRRSLEQNVQLPAALLSRFDLLWLIQDRPDRDNDLRLAQHITYVHQHSRQPPAQFEPLDMKLMRRYIAMCHERQPTVPESLADYITAAYVEMRREARASKDATYTSARTLLAILRLSTALARLRMVDIVEKEDVNEAIRLMEMSKDSLLGEKGQTARTQRPADVIFATIRELVSRGRSVHFSEAEQRCISRGFTPAQFQAALDEYEELNVWQVNTSRTRITFV | not soluble
17 | MSLKTVVVSGASVAGTAAAYWLGRHGYSVTMVERHPGLRPGGQAIDVRGPALDVLERMGLLAAAQEHKTRIRGASFVDRDGNELFRDTESTPTGGPVNSPDIELLRDDLVELLYGATQPSVEYLFDDSISTLQDDGDSVRVTFERAAAREFDLVIGADGLHSNVRRLVFGPEEQFVKRLGTHAAIFTVPNFLELDYWQTWHYGDSTMAGVYSARNNTEARAALAFMDTELRIDYRDTEAQFAELQRRMAEDGWVRAQLLHYMRSAPDFYFDEMSQILMDRWSRGRVALVGDAGYCCSPLSGQGTSVALLGAYILAGELKAAGDDYQLGFANYHAEFHGFVERNQWLVSDNIPGGAPIPQEEFERIVHSITIKDYEGHHHHHH | not soluble
18 | MGSDKIHHHHHHMLPLVKLIRGQDNTIVEADLVELWQKHVDDYANKWKEQLKLHGQSDKFWDWEFKLEFIINRQANREGFAIEYEDETQGLMLIETQMHGSRLVEGKRLVYIDGIATAPWNRAYIQRPPKLKGVGTAFLAFARTRSLELGYEGRVGLHSLPGVEEFYDNQGMIDVGEDEDYDDLVYFEYGVFRSPV | not soluble
19 | MIFKKEPKRYTVEDTIPYLRLLKSGICQLDEKHFSKSIAFQDINYQLALDEDRDLIFNQFANFLNSFDPSISIEFSYVNQLGRNEEMKSAIQIPDKKDGFDDIRFEFREMLKSQIVKGNNGLKKSKYVTFTVEADNLEQATSKLERLEIDILSNLKSMGVRAESLNGEERLKILHDVLNPNKTFEFSYKDLKKRESTKTYIVPDEFNFTPSRYFKFGKFIGATSHFQILASELSDRMLSEFLDIDDNINISFHIRAIDQSEAIKMVKRKNTDIDKMKIEENKKAVRSGYDMDILPSDLITYGEDVKSLLKDLQTRDERMFVVSIVFMNFARTVQKLDNTIAQISSIANKHNCKLKRLDHSQEQGLVSMLPLGVNKIEIDRGLTSSSTAVFMPFTTEELFINSSNSLYYGLNALSHNLIMADRKKLKNPNGLILGTPGSGKSFSAKREMANAILVTDDDVIICDPEGEYGNLVRQFKGEVIKVSSKSKDYLNPLDINMNYGDGDAPLKDKANFIMSMLELVVGGSGLTAEEKSVIDRCLPKIYEKYFEHPTPDNMPILQDLYDMLKGQEEKVGKKLATEMEIYVSGSLNVFNHRSNVDLNKKLLCFDIKELGSQLKKIGMLVIQDQVWNKVSQNRGNKATRYYIDEFHLLLKDEQTASYSVEIWKRFRKWGGIPTGITQNVKDLLMSKEIENIFDNTDFVLMLNQASGDREILARKLKISLPQLRYVTNSNEGEGLLFFGNTIVPFLDKFPKDTILYQKMTTKPEEVRLEHHHHHH | soluble

Reference: the DeepSol protein solubility set
